Experimental data from PMC6135609, “Poly(ADP-ribose) polymerase 1 searches DNA via a ‘monkey bar’ mechanism”.

Columns and labels:
Settings in all cases: protein: recombinant; (Ni-NTA; pET28a); blunt
PARP1 WT = PARP1 WT (human, UniProt P09874 1-1014); experiment: stopped-flow fluorescence anisotropy; kinetic Kd; k1 3.1 nM-1 s-1, k-1 <10 s-1; 50 mM Tris-HCl pH 7.5, 50 mM NaCl, 1 mM MgCl2, 0.1 mM EDTA, 0.01% IGEPAL, 20 C
PARP1 dWGR = PARP1 dWGR (human, UniProt P09874 1-517+=ALAGSGSGSGSGSGLALLLAGSGSGSGSGAAL+655-1014, internal_change); experiment: stopped-flow fluorescence anisotropy; k1 similar to WT; Scheme 2 dissociation, no ternary complex; 50 mM Tris-HCl pH 7.5, 50 mM NaCl, 1 mM MgCl2, 0.1 mM EDTA, 0.01% IGEPAL, 20 C
Chain of PARP1 dWGR (P09874 other isoform, or with tags, fused parts or gaps): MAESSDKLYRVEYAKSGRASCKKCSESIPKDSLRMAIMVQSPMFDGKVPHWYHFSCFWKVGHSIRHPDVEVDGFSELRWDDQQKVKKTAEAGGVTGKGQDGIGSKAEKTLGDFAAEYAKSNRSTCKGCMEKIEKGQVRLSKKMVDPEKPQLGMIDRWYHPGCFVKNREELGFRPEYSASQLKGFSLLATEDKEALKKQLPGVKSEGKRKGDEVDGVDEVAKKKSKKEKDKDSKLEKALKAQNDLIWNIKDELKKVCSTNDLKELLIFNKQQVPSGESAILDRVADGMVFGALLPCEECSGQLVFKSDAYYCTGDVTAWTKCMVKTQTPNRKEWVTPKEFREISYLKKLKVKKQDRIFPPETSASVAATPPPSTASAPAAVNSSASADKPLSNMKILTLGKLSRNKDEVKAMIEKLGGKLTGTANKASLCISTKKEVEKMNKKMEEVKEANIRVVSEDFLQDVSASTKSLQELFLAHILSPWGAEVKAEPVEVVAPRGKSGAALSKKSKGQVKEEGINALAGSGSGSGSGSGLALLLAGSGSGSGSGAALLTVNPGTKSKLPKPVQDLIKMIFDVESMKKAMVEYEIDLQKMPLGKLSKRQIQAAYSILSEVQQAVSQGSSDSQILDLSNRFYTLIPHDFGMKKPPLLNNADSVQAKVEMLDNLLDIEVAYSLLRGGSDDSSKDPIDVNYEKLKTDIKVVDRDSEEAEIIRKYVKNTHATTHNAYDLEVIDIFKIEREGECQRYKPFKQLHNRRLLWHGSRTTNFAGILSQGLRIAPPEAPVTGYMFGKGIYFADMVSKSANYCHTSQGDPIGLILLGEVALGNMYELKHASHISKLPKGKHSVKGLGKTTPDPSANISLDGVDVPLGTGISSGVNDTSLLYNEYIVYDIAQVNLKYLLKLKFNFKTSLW

PARP1 dZn2 = PARP1 dZn2 (human, UniProt P09874 1-96+=ALAGSGSGSGSGSGLALLLAGSGSGSGSGAAL+207-1014, internal_change); experiment: stopped-flow fluorescence anisotropy; k1 similar to WT; Scheme 3 dissociation; 50 mM Tris-HCl pH 7.5, 50 mM NaCl, 1 mM MgCl2, 0.1 mM EDTA, 0.01% IGEPAL, 20 C
Chain of PARP1 dZn2 (P09874 other isoform, or with tags, fused parts or gaps): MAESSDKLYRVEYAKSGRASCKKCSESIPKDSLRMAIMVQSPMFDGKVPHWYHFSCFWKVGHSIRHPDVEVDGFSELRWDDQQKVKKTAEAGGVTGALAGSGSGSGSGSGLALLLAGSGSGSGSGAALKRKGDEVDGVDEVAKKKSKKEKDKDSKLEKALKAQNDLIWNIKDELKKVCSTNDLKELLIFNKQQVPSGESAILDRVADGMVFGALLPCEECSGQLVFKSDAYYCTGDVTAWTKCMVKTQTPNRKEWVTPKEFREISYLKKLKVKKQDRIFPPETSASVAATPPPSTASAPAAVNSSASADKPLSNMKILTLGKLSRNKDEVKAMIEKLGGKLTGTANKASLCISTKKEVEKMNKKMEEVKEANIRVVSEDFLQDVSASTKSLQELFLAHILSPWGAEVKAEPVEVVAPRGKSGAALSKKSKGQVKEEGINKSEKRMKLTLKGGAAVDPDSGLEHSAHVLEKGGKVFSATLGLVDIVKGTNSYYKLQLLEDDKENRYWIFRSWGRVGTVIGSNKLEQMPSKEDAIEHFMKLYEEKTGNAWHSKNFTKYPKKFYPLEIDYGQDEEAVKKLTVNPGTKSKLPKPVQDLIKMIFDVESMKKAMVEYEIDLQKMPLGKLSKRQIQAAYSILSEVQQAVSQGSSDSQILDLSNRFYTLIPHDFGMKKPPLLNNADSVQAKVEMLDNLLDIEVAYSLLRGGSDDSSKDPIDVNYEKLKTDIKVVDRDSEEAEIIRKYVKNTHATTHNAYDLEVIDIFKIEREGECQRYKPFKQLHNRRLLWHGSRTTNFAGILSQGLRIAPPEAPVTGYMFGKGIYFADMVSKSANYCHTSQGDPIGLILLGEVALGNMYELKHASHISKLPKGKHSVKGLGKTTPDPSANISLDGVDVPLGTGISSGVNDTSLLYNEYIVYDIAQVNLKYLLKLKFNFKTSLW

PARP1 dZn1 = PARP1 dZn1 (human, UniProt P09874 97-1014, del2-96); experiment: as above
Chain of PARP1 dZn1 (P09874 97-1014, stated change not applied): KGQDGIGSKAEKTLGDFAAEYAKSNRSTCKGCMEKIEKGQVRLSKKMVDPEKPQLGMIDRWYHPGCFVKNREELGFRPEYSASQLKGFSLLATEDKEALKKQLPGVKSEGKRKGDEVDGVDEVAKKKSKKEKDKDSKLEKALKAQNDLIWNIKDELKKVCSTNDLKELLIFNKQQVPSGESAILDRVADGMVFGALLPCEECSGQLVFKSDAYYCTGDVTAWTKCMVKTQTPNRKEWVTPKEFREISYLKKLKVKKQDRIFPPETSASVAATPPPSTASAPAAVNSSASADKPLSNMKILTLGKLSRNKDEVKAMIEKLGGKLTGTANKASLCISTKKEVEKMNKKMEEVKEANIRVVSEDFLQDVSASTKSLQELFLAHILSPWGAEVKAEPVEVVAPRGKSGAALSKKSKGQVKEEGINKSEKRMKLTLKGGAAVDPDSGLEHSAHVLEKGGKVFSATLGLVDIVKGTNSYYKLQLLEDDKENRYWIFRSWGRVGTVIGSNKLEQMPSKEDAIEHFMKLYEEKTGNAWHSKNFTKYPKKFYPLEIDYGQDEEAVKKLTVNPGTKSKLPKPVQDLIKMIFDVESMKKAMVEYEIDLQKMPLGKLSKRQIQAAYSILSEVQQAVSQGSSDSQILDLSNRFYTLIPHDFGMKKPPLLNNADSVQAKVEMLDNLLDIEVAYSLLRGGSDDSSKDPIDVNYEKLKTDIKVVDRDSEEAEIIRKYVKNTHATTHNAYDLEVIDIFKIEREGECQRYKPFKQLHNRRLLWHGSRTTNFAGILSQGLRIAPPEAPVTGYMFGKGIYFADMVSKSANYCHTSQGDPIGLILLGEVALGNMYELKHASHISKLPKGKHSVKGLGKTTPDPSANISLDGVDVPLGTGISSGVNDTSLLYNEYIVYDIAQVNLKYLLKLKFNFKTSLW

PARP1 dZn3 = PARP1 dZn3 (human, UniProt P09874 1-215+=ALAGSGSGSGSGSGLALLLAGSGSGSGSGAAL+367-1014, internal_change); experiment: as above
Chain of PARP1 dZn3 (P09874 other isoform, or with tags, fused parts or gaps): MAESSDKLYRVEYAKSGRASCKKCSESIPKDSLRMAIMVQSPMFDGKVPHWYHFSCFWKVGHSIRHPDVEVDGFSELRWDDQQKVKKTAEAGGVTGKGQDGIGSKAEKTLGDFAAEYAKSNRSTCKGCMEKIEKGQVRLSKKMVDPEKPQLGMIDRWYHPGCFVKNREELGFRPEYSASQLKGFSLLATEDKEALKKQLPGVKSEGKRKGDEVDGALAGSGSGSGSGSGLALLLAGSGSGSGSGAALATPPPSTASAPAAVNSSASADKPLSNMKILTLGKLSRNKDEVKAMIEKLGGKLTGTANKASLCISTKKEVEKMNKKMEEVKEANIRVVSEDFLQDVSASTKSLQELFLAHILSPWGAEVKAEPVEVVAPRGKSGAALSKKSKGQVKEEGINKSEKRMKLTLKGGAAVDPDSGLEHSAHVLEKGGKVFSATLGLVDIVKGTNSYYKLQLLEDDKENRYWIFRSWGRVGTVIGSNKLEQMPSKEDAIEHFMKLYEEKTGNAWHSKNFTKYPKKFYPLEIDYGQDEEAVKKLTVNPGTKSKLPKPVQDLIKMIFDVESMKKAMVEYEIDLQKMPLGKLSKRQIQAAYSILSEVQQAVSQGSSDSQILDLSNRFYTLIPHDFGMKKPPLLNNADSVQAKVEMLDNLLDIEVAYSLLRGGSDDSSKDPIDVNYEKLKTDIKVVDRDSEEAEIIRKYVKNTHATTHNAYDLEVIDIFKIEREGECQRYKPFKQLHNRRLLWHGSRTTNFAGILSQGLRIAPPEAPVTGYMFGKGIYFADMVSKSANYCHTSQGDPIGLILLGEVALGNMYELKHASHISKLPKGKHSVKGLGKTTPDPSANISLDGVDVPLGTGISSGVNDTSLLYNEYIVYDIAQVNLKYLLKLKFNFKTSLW

Chain of PARP1 WT (P09874 whole entry): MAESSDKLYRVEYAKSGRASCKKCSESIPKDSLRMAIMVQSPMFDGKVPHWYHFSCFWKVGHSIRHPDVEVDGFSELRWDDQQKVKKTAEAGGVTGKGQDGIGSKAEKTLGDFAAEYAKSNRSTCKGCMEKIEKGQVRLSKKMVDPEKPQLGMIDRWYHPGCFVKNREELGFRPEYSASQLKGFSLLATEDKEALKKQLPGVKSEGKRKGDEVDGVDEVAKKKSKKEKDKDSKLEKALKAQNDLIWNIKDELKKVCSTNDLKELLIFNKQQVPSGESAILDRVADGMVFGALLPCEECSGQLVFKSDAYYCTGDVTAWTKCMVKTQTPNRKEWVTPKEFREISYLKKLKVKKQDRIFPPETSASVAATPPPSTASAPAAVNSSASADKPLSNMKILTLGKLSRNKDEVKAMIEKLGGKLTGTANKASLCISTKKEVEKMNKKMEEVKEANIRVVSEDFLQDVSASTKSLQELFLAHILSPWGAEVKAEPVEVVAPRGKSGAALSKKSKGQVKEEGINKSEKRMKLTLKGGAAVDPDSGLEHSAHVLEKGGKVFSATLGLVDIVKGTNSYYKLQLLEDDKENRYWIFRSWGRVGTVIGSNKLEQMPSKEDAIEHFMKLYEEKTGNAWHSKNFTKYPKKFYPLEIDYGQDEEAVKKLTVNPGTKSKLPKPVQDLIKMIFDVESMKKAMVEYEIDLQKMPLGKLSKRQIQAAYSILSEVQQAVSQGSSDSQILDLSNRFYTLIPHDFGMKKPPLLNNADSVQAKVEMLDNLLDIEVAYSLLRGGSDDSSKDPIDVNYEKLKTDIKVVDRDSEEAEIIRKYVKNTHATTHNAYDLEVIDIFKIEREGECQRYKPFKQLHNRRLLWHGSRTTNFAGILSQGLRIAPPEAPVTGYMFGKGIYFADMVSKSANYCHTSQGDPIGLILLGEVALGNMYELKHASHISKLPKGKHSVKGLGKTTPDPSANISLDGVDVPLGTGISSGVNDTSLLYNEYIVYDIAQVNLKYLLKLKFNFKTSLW

B1: p18mer* (labeled DSB model) (dsDNA)
DNA 1: GGGTTGCGGCCGCTTGGG
DNA 2: CCCAAGCGGCCGCAACCC
modifications: 5'-phosphate
In the case of B1, the Kd (PARP1 WT) is reported as < 3 nM, the binding result (PARP1 dWGR) is reported as “binds” and the binding result (PARP1 dZn2) is reported as “binds”. B1: binds (PARP1 dZn1); binds (PARP1 dZn3).
